In patent publication US20240342244A1, “Isthmin Protein Therapeutics for the Treatment of Non-Alcoholic Fatty Liver Disease” (The Board of Trustees of the Leland Stanford Junior …, priority 2021, published 2024):

What was measured:
pS6^S235/S236 = assay: Acute and long-term signaling in AML12 hepatocytes (western blot); format: cell-based, mouse
Experimental: (§1) Western blots and molecular analyses. For western blotting, homogenized tissues or whole-cell lysates, samples were lysed in RIPA buffer containing protease inhibitor cocktail (Roche) and phosphatase inhibitor cocktail (Roche). Cell lysates were centrifuged at 14,000×g for 15 min and supernatants were prepared in 4×LDS Sample Buffer (Invitrogen) and separated by SDS-PAGE and transferred to Immobilon 0.45 μm membranes (Millipore). For Western blotting of plasma samples, 1 μl of plasma was prepared in 2× sample buffer (Invitrogen) with reducing agent, boiled, and analyzed using Western blot against indicated antibody. Protein kinase array (R&D systems ARY003B) was performed according to the manufacturers' description. All antibodies used in this paper are described in STAR methods.

human SGBS adipocytes = assay: 2-deoxy-3H-glucose uptake in human SGBS adipocytes; format: cell-based
Experimental: Mouse and human pre-adipocytes culture and differentiation. Inguinal fat pads from 4-8 week old C57BL/6J male and female mice were dissected and mechanically digested for 10 min using spring scissors. Digested tissues were incubated in WAT isolation buffer (10 ml PBS, 2.4 U/ml dispase II (#04942078001, Roche), 10 mg/ml collagenase D (#11088858001, Roche) at 37° C. for 45 min. 20 mL growth media was added and the tissue suspension was filtered through a 100-μm cell strainer and centrifuged at 600×g for 5 min. The cell pellets were resuspended in 20 mL growth media, filtered through a 40-μm cell strainer, centrifuged at 600×g for 5 min, resuspended in 10 mL growth media, and plated in 10-cm collagen-coated dishes. The cells were cultured in growth media (DMEM/F-12 Glutamax, Thermo Fisher Scientific #10565018) supplemented with 10% fetal bovine serum. Two days post-confluency, differentiation was induced with growth media containing 1 μM rosiglitazone, 0.5 mM isobutylmethylxanthine, 1 μM dexamethasone, 5 μg/mL insulin. After two days, cells were re-fed with growth media containing 1 μM rosiglitazone and 5 μg/mL insulin. Cells were fully differentiated after 6-8 days. For ISM1 knockdown or overexpression in primary adipocytes using adenovirus, 500 μL crude virus was mixed with 500 μL fresh growth media containing 1 μM rosiglitazone and 5 μg/mL insulin was added to each well at day 2 of differentiation. At day 4, virus-containing media was removed and 500 μL fresh growth media without stimulators was added to each well. SGBS cells were differentiated as described previously (Fischer-Posovszky et al., 2008; Wabitsch et al., 2001). Briefly, cells were cultured in growth media DMEM/F-12 Glutamax, supplemented with 10% fetal bovine serum, 33 uM biotin, and 17 uM pantothenate. Two days post confluency, differentiation was induced with serum-free DMEM/F12 media containing 33 uM biotin, 17 uM pantothenate, 0.01 mg/ml transferrin, 20 nM insulin, 100 nM cortisol, 0.2 nM triiodothyronine, 25 nM dexamethasone, 0.25 mM isobutyl methylxanthine, and 2 μM rosiglitazone. After four days, cells were re-fed with growth media containing 0.01 mg/ml transferrin 20 nM insulin, 100 nM cortisol, 0.2 nM triiodothyronine. Cells were fully differentiated after day 8-10.
Glucose uptake. Glucose uptake was performed as previously described (You et al., 2017). Briefly, 2-Deoxy-d-[2,6-3H]-glucose was purchased from PerkinElmer NEN radiochemicals. Fully differentiated adipocytes were washed with KRH buffer and starved in 0.5% BSA in KRH buffer for 4 h. Indicated concentrations of insulin or ISM1 were added at indicated time points. Cells were treated with a mixture of 500 μM 2-deoxy-D-glucose and 1.71 μCimL^−1 2-Deoxy-D-[1,2-3H (N)]-glucose for another 10 min followed by three washes using ice cold KRH buffer containing 200 mM glucose. The passive glucose uptake in the presence of 50 uM CytoB was less than 12% of the total glucose uptake. Cells were solubilized in 1% SDS and radioactivity was measured by liquid scintillation counting.

DIO mice = assay: Therapeutic ISM1 administration for five days in DIO mice; format: in vivo, mouse; settings: 5 mg/kg for five days
Experimental: Therapeutic ISM1 recombinant protein administration in vivo. All pharmacologic studies using recombinant ISM1 protein were performed in mice with established diet-induced obesity or non-alcoholic fatty liver disease (NAFLD). For all experiments, male C57BL/6J mice purchased from Jax were fed either a high-fat diet (#D12492, Research Diets) or a NAFLD diet (#D09100310, Research Diets) prior to ISM1 protein injections. In all experiments, mice were mock injected with saline for three days prior to protein or drug injections to prevent stress-induced weight loss. Mice were I.P. injected with vehicle (saline) or indicated doses of ISM1 protein diluted in saline. For the 14-day experiments in NAFLD mice, 7-weeks old mice were fed with NAFLD diet for 3 weeks and then mock injected with saline for 3 days prior to protein injections. The induction of lipid accumulation with NAFLD diet was verified by the significant increase in hepatic lipid levels compared with mice on chow diet at the same time point. […] At the end of the experiments, mice and tissue weights were recorded. […]
Glucose tolerance and insulin tolerance tests. […] Blood glucose levels were measured at 0, 15, 30, 45, 60, 90 and 120 mins. […] Blood glucose levels were measured at 0, 15, 30, 45, 60, 90 and 120 mins.

pAKT^S473 = assay: pAKT S473 signaling in 3T3-F442A cells (phosphokinase array, western blot); format: cell-based
Experimental: as §1

[1] = system: pAKT^T308, S6^S235/S236, PRAS40^Thr246, ERK1/2, PKA, PDK1, GSK3β; assay: Time-course western blot of intracellular signaling pathways in 3T3-F442A cells; format: cell-based
Experimental: as §1

[2] = insulin 1 nM up to 100 nM with 25 nM or 50 nM ISM1

B1: ISM1: recombinant mouse ISM1 protein with a C-terminal myc-his tag generated in mammalian HEK 293 Expi cells (protein, UniProt A2ATD1 30-454, looked up)
Isthmin-1: SDRQDAAAGNNNLNLESDSTSETSFPLSKEAPEEHQVVHQPFPRQRFPPETGHPSLQRDGPRSFLLDLPNFPDLSKADINGQNPNIQVTIEVVDGPDSEAEKDQHPENKPSWSLPAPDWRAWWQRSLSLARTNSGDQDDKYDSTSDDSNFLSVPRGWDRPAPGHRTFETKEQPEYDSTDGEGDWSLWSVCSVTCGNGNQKRTRSCGYACIATESRTCDRPNCPGIEDTFRTAATEVSLLAGSEEFNATKLFEVDMDSCERWMSCKSEFLKKYMHKVINDLPSCPCSYPTEVAYSTADIFDRIKRKDFRWKDASGPKEKLEIYKPTARYCIRSMLSLESTTLAAQHCCYGDNMQLITRGKGAGTPNLISTEFSAELHYKVDVLPWIICKGDWSRYNEARPPNNGQKCTESPSDEDYIKQFQEAREY
modifications: C-terminal myc-His tag
notes: recombinant mouse ISM1 protein with a C-terminal myc-his tag generated in mammalian HEK 293 Expi cells
pS6^S235/S236 after long-term treatment (pS6^S235/S236; 24 h treatment): induces hyperactivation of pS6^S235/S236
acute signaling added to insulin (pS6^S235/S236; insulin 1 nM up to 100 nM with 25 nM or 50 nM ISM1, 5 min): do not result in any additional signaling changes
effect on glucose uptake relative to that of insulin (human SGBS adipocytes; SGBS cells): 50-100%
increase in glucose uptake (human SGBS adipocytes; [3H]-2-deoxy-glucose, starting from 20 nM, 30 minutes): 1.5 fold
concentration from which glucose uptake is increased (human SGBS adipocytes; doses ranging from 10 nM to 200 nM): 20 nM
insulin tolerance (ITT) (DIO mice): modest improvement
ad lib glucose levels (DIO mice; vs vehicle): no difference
pAKT^S473 bioactivity compared with commercially available ISM1 protein (R&D systems) (pAKT^S473; 100 nM, 5 min): comparable bioactivities
top hit of phosphokinase array (43 proteins) (pAKT^S473; 100 nM, 5 min): phosphorylated protein kinase B (PKB)/AKT at S473
dose at which dose-dependent increase in pAKT^S473 phosphorylation starts (pAKT^S473; increasing doses, 5 min): 50 nM
AKT activity of ISM1 combined with insulin (pAKT^S473; [2]): additional effect
potentiation of insulin on AKT activity (pAKT^S473; [2]): no evidence of potentiation
activation of S6^S235/S236 and PRAS40^Thr246 ([1]; 100 nM, time course): time-dependent activation
pAKT^T308 phosphorylation ([1]; 100 nM, time course): phosphorylation at pAKT^T308 at all time points
ERK1/2 phosphorylation ([1]; 100 nM, vs 20 ng/ml PDGF-ββ): does not evoke as robust ERK1/2 phosphorylation as the known mitogen PDGF-ββ
ERK1/2 phosphorylation ([1]; 200 nM ISM1 vs 100 nM insulin): prolonged and more potent phosphorylation of ERK1/2 than insulin
activity on other pathways such as PKA, PDK1 or GSK3P ([1]; even at 200 nM doses): does not display any activity or displays only weak activity
